Results on three molecules are retold here after paper PMC10071043, “Cryo-EM structure of the RuvAB-Holliday junction intermediate complex from Pseudomonas aeruginosa” (Frontiers in Plant Science, 2023).

Sequences and labels used below:
B1: HJ2 (HJ2-A/B/C/D) (structured_DNA)
DNA 1: CACTGTGATGCACGATGATAGAACACAGTACTCAGTGCTGCAGTGCTCAGGTGTG
DNA 2: ATACAGATGTAGAGCCAGCACTGAGTACTGTGTTCTATCATCGTGCATCACAGTG
DNA 3: CACTGTGATGGCATGTATCCGAACACAGTACTCAGTGCTGGCTCTACATCTGTAT
DNA 4: CACACCTGAGCACTGCAGCACTGAGTACTGTGTTCGGATACATGCCATCACAGTG
B2: Pseudomonas aeruginosa RuvB (enzyme, UniProt Q51426 1-352, looked up)
chain: MIEPDRLISAVSGRERDEQLDRAIRPLKLADYIGQPSVREQMELFIHAARGRQEALDHTLIFGPPGLGKTTLANIIAQEMGVSIKSTSGPVLERPGDLAALLTNLEAGDVLFVDEIHRLSPIVEEVLYPAMEDFQLDIMIGEGPAARSIKLDLPPFTLVGATTRAGMLTNPLRDRFGIVQRLEFYNVEDLATIVSRSAGILGLEIEPQGAAEIAKRARGTPRIANRLLRRVRDFAEVRGQGDITRVIADKALNLLDVDERGFDHLDRRLLLTMIDKFDGGPVGIDNLAAALSEERHTIEDVLEPYLIQQGYIMRTPRGRVVTRHAYLHFGLNIPKRLGPGVTTDLFTSEDGN
notes: RuvB, AAA+ ATPase motor protein of Pseudomonas aeruginosa; cDNA synthesised (GenBank ID 882028); domains N, M and C; In the cryo-EM complex eight RuvB subunits form two open rings of four; only one ring is modelled; GST removed with PreScission protease; also called PaRuvB; source: E. coli BL21 (DE3), purified (GST Sepharose, Source 15Q, Superdex 200); not shown: GST, N-terminal, cleaved
B3: Pseudomonas aeruginosa RuvA (natural protein, UniProt Q51425 1-201, looked up)
chain: MIGRLRGTLAEKQPPHLILDVNGVGYEVEVPMTTLYRLPSVGEPVTLHTHLVVREDAHLLYGFAEKRERELFRELIRLNGVGPKLALALMSGLEVDELVRCVQAQDTSTLVKIPGVGKKTAERLLVELKDRFKAWENMPTIAPLVMEPRASATVSSAEADAVSALIALGFKPQEASRAVAAVPGEDLSSEEMIRQALKGMV
notes: cDNA synthesised (GenBank ID 879609); domains D1, D2 and D3; In the cryo-EM complex eight RuvA subunits (two tetramers) sandwich one Holliday junction DNA; GST removed with PreScission protease; also called PaRuvA; source: E. coli Rosetta (DE3), purified (GST Sepharose, Source 15Q, Superdex 200); not shown: GST, N-terminal, cleaved

One data set concerns the target PaRuvA;PaRuvB (Pseudomonas aeruginosa;Pseudomonas …, UniProt Q51425;Q51426 1-201;1-352, |). In words: cryo-EM; RuvAB-HJ intermediate complex; PDB assigned from residue and nucleotide counts; binding buffer for cryo-EM not given in material; proteins in 20 mM HEPES pH 7.4, 200 mM NaCl, 15 mM reduced glutathione, 1 mM DTT; DNA annealed in 100 mM HEPES pH 7.4, 50 mM NaCl. Particulars: protein: recombinant;recombinant; tags: GST tag removed (PreScission);GST tag removed (PreScission); chain copies: 8;8; four-way Holliday junction of 4 strands; A/B and C/D annealed first, then mixed.

A further data set deals with T1, PaRuvA (Pseudomonas aeruginosa, UniProt Q51425 1-201).
T1 sequence: B3 chain
Briefly: cryo-EM; RuvA-HJ core region of the RuvAB-HJ complex, 3.0 A; PDB assigned from residue and nucleotide counts; binding buffer for cryo-EM not given in material; proteins in 20 mM HEPES pH 7.4, 200 mM NaCl, 15 mM reduced glutathione, 1 mM DTT; DNA annealed in 100 mM HEPES pH 7.4, 50 mM NaCl. Particulars: protein: recombinant; tags: GST tag removed (PreScission); chain copies: 8; four-way Holliday junction of 4 strands; A/B and C/D annealed first, then mixed.

A further data set addresses PaRuvB (Pseudomonas aeruginosa, UniProt Q51426 1-352). In words: cryo-EM; RuvB ring on one HJ arm duplex in the RuvAB-HJ complex; RuvB1 and RuvB2 contact DNA via C-terminal beta-hairpins, RuvB3 and RuvB4 DNA-free; PDB assigned from residue and nucleotide counts; binding buffer for cryo-EM not given in material; proteins in 20 mM HEPES pH 7.4, 200 mM NaCl, 15 mM reduced glutathione, 1 mM DTT; DNA annealed in 100 mM HEPES pH 7.4, 50 mM NaCl. Particulars: protein: recombinant; tags: GST tag removed (PreScission); chain copies: 8; four-way Holliday junction of 4 strands; A/B and C/D annealed first, then mixed.

Data set [1] deals with the molecule itself. In words: cryo-EM structure; HJ DNA (HJ2) pre-incubated with RuvA at 4°C for 15 min, then with RuvB for 15 min, RuvA:RuvB:HJ = 8:16:1.2; 50 mM NaCl, 20 mM HEPES pH 7.4, 1 mM ATPγS, 10 mM MgCl2, 1 mM DTT; complex purified on Superose 6.
In data set [2] the target is B2. Described as above. Particulars: both partners purified.

Take B1: the binding result with PaRuvA;PaRuvB, with PaRuvA and with PaRuvB was “binds” in each case.

In the case of B2, the “stoichiometry N” value in data set [1] turned out to be 4.

As for B3, the binding result in data set [2] was “binds”. In data set [1], the “stoichiometry N” value stood at 8.
